From patent US11833164B2, “Methods of treating Fabry disease in patients having a mutation in the GLA gene” (Amicus Therapeutics, Inc., priority 2019, dated 2023)
Substitutions are numbered along the chain they refer to. Names and notes keep the numbering of the source.

B1: D335Y (protein)
chain: MQLRNPELHLGCALALRFLALVSWDIPGARALDNGLARTPTMGWLHWERFMCNLDCQEEPDSCISEKLFMEMAELMVSEGWKDAGYEYLCIDDCWMAPQRDSEGRLQADPQRFPHGIRQLANYVHSKGLKLGIYADVGNKTCAGFPGSFGYYDIDAQTFADWGVDLLKFDGCYCDSLENLADGYKHMSLALNRTGRSIVYSCEWPLYMWPFQKPNYTEIRQYCNHWRNFADIDDSWKSIKSILDWTSFNQERIVDVAGPGGWNDPDMLVIGNFGLSWNQQVTQMALWAIMAAPLFMSNDLRHISPQAKALLQDKDVIAINQDPLGKQGYQLRQGYNFEVWERPLSGLAWAVAMINRQEIGGPRSYTIAVASLGKGVACNPACFITQLLPVKRKLGFYEWTSRLRSHINPTGTVLLQLENTMQMSLKDLL
B2: F337V (protein)
chain: B1 chain with Y335D, F337V
B3: N336S (protein)
chain: B1 chain with Y335D, N336S
B4: F337L (protein)
chain: B1 chain with Y335D, F337L
B5: N336I (protein)
chain: B1 chain with Y335D, N336I
B6: E338A (protein)
chain: B1 chain with Y335D, E338A
B7: N336D (protein)
chain: B1 chain with Y335D, N336D
B8: F337C (protein)
chain: B1 chain with Y335D, F337C
B9: N336T (protein)
chain: B1 chain with Y335D, N336T
B10: F337Y (protein)
chain: B1 chain with Y335D, F337Y
B11: E338G (protein)
chain: B1 chain with Y335D, E338G
B12: E341A (protein)
chain: B1 chain with Y335D, E341A
B13: E338D (protein)
chain: B1 chain with Y335D, E338D
B14: E341Q (protein)
chain: B1 chain with Y335D, E341Q
B15: N336Y (protein)
chain: B1 chain with Y335D, N336Y
B16: V339M (protein)
chain: B1 chain with Y335D, V339M

Test system: mutant form of α-Gal A expressed in HEK-293 cells
Assay: HEK assay (GLP HEK / Migalastat Amenability Assay): α-Gal A activity in lysates of transiently transfected HEK-293 cells incubated with or without 10 μM migalastat
Type: cell-based, human
Details: for Absolute increase (% WT) / Relative increase: 10 μM migalastat versus baseline; for Baseline α-Gal A activity (% WT): absence of migalastat; for Baseline α-Gal A activity (% WT) / 10 μM migalastat α-Gal A activity (% WT): percentage of baseline wild-type α-Gal A activity; for Baseline α-Gal A activity (% WT) / Baseline α-Gal A activity / 10 μM migalastat α-Gal A activity / 10 μM migalastat α-Gal A activity (% WT): mean ± SEM; for Baseline α-Gal A activity / 10 μM migalastat α-Gal A activity: lysates of HEK-293 cells transiently transfected with the mutant form; for Baseline α-Gal A activity: incubated 5 days in absence of migalastat; for 10 μM migalastat α-Gal A activity: incubated 5 days with 10 μM migalastat; for 10 μM migalastat α-Gal A activity (% WT): with 10 μM migalastat, 5 days
Summary of the method: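 HEK-293 cells transiently transfected with mutant α-Gal A and incubated with or without 10 μM migalastat; lysate activity given as nmol free 4-MU released per mg protein per hour. Values are mean±SEM.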

| Molecule | Absolute increase (% WT) | Relative increase | Baseline α-Gal A activity (% WT) | Baseline α-Gal A activity | 10 μM migalastat α-Gal A activity | 10 μM migalastat α-Gal A activity (% WT) |
| --- | --- | --- | --- | --- | --- | --- |
| B1 | 11.0 % WT | 1.3 | 43 ± 1.7 % WT | 19469 ± 982 nmol/mg/h | 24732 ± 2214 nmol/mg/h | 54.1 ± 3.5 % WT |
| B2 | 31.1 % WT | 1.4 | 65.9 ± 4.1 % WT | 29582 ± 2747 nmol/mg/h | 42718 ± 2776 nmol/mg/h | 97 ± 4.6 % WT |
| B3 | 18.7 % WT | 1.2 | 79.7 ± 3.8 % WT | 32974 ± 2396 nmol/mg/h | 40651 ± 2487 nmol/mg/h | 98.4 ± 3.1 % WT |
| B4 | 20.8 % WT | 1.4 | 57.8 ± 4.8 % WT | 23197 ± 2254 nmol/mg/h | 31963 ± 2641 nmol/mg/h | 78.6 ± 3.1 % WT |
| B5 | 23.0 % WT | 2.1 | 20.7 ± 2.7 % WT | 8544 ± 1083 nmol/mg/h | 18303 ± 1404 nmol/mg/h | 43.8 ± 1.6 % WT |
| B6 | 24.8 % WT | 1.7 | 39.5 ± 2.3 % WT | 15626 ± 769 nmol/mg/h | 25719 ± 1376 nmol/mg/h | 64.3 ± 3 % WT |
| B7 | 34.3 % WT | 1.7 | 53.7 ± 2.8 % WT | 23869 ± 1072 nmol/mg/h | 39534 ± 2519 nmol/mg/h | 88.1 ± 4.9 % WT |
| B8 | 19.0 % WT | 1.9 | 21.7 ± 0.8 % WT | 9557 ± 452 nmol/mg/h | 17991 ± 960 nmol/mg/h | 40.7 ± 1.6 % WT |
| B9 | 29.7 % WT | 2.0 | 28.9 ± 1.3 % WT | 12743 ± 709 nmol/mg/h | 25898 ± 1374 nmol/mg/h | 58.6 ± 2.3 % WT |
| B10 | 21.6 % WT | 1.4 | 52.3 ± 4.2 % WT | 21577 ± 1930 nmol/mg/h | 30991 ± 2695 nmol/mg/h | 73.9 ± 3.2 % WT |
| B11 | 16.8 % WT | 2.0 | 17.1 ± 1.1 % WT | 6415 ± 391 nmol/mg/h | 12588 ± 538 nmol/mg/h | 33.9 ± 1.8 % WT |
| B12 | 11.6 % WT | 4.1 | 3.8 ± 0.4 % WT | 1444 ± 159 nmol/mg/h | 5855 ± 690 nmol/mg/h | 15.4 ± 1.3 % WT |
| B13 | 15.2 % WT | 1.2 | 65.7 ± 4.9 % WT | 25700 ± 1958 nmol/mg/h | 31632 ± 1825 nmol/mg/h | 80.9 ± 4.6 % WT |
| B14 | 19.7 % WT | 1.4 | 55.5 ± 3.7 % WT | 20802 ± 2164 nmol/mg/h | 28411 ± 2891 nmol/mg/h | 75.2 ± 4.1 % WT |
| B15 | 16.6 % WT | 1.3 | 66.3 ± 3.7 % WT | 29615 ± 1640 nmol/mg/h | 37475 ± 2540 nmol/mg/h | 83 ± 4.4 % WT |
| B16 | 18.2 % WT | 1.3 | 63.5 ± 2.9 % WT | 26113 ± 1116 nmol/mg/h | 33867 ± 2526 nmol/mg/h | 81.7 ± 5 % WT |
